Experiments:
[1] = target: T1, human MSLN-FL-his protein (human, UniProt Q13421 296-580); test: ELISA on coated antigen, no antibody (blank, column 'none')
T1 construct: Made in HEK293E cells, purified on nickel column; it is put last here; also called human MSLN full-length protein; hMSLN-FL-his; not shown: His tag

[2] = target: T1, human MSLN-FL-his protein; test: ELISA on coated antigen, antibody 1 nM
[3] = target: T1, human MSLN-FL-his protein; test: ELISA on coated antigen, antibody 0.01 nM
[4] = target: T1, human MSLN-FL-his protein; test: ELISA on coated antigen, antibody 0.0001 nM
[5] = target: T1, human MSLN-FL-his protein; test: ELISA on coated antigen, antibody 0.001 nM
[6] = target: T1, human MSLN-FL-his protein; test: ELISA on coated antigen, antibody 100 nM
[7] = target: T1, human MSLN-FL-his protein; test: ELISA on coated antigen, antibody 10 nM
[8] = target: T1, human MSLN-FL-his protein; test: ELISA on coated antigen, antibody 0.1 nM
[9] = target: T2, human MSLN-hFc protein (Acro, Cat. No. MSN-H5253) (human, UniProt Q13421 296-580); test: ELISA on coated antigen, antibody 0.1 nM
T2 construct: the method names the coated protein as human MSLN-hFc (Acro); also called human MSLN full-length protein
T2 sequence (Q13421 other isoform, or with tags, fused parts or gaps limits assumed): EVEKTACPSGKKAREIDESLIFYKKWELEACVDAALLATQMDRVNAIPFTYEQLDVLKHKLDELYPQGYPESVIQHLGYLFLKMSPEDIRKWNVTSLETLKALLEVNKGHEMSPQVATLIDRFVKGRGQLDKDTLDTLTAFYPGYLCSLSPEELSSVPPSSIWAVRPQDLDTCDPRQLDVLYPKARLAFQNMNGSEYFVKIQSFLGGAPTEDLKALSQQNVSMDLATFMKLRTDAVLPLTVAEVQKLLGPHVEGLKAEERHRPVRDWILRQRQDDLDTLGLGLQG

[10] = target: T3, human MSLN-R3 protein (human, UniProt Q13421 487-598); test: ELISA on coated antigen, antibody 100 nM
T3 construct: also called hMSLN-R3
T3 sequence (Q13421 495-606, form in doubt): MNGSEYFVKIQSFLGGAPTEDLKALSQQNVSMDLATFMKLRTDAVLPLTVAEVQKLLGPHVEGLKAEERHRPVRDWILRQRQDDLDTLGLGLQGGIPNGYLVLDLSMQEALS

[11] = target: T3, human MSLN-R3 protein; test: ELISA on coated antigen, antibody 10 nM
[12] = target: T3, human MSLN-R3 protein; test: ELISA on coated antigen, antibody 1 nM
[13] = target: T2, human MSLN-hFc protein (Acro, Cat. No. …); test: ELISA on coated antigen, antibody 0.001 nM
[14] = target: T2, human MSLN-hFc protein (Acro, Cat. No. …); test: ELISA on coated antigen, antibody 0.0001 nM
[15] = target: T2, human MSLN-hFc protein (Acro, Cat. No. …); test: ELISA on coated antigen, antibody 0.01 nM
[16] = target: T3, human MSLN-R3 protein; test: ELISA on coated antigen, antibody 0.0001 nM
[17] = target: T2, human MSLN-hFc protein (Acro, Cat. No. …); test: ELISA on coated antigen, antibody 100 nM
[18] = target: T2, human MSLN-hFc protein (Acro, Cat. No. …); test: ELISA on coated antigen, antibody 10 nM
[19] = target: T3, human MSLN-R3 protein; test: ELISA on coated antigen, antibody 0.001 nM
[20] = target: T3, human MSLN-R3 protein; test: ELISA on coated antigen, antibody 0.1 nM
[21] = target: T3, human MSLN-R3 protein; test: ELISA on coated antigen, antibody 0.01 nM
[22] = target: T2, human MSLN-hFc protein (Acro, Cat. No. …); test: ELISA on coated antigen, antibody 1 nM

T1 sequence (Q13421 other isoform, or with tags, fused parts or gaps): as the sequence (Q13421 other isoform, or with tags, fused parts or gaps limits assumed) above, with R14P counted along it

Binder	OD450 [1]	OD450 [2]	OD450 [3]	OD450 [4]	OD450 [5]	OD450 [6]	OD450 [7]	OD450 [8]	OD450 [9]	OD450 [10]	OD450 [11]	OD450 [12]	OD450 [13]	OD450 [14]	OD450 [15]	OD450 [16]	OD450 [17]	OD450 [18]	OD450 [19]	OD450 [20]	other results
S009-F8-12.13 (antibody, human IgG1, kappa, V domains shown, Human-murine chimeric antibody, human IgG1 heavy and kappa light constant regions) VH: QVQLQQPGAELVKPGASVKLSCKASGYTFTSYWMHWVKQRPGQGLEWIGMIHPNSGSTNYNEKFKSKATLTVDKSSSTAYMQLSSLTSEDSAVYYCARRTPIITLVGHWYFDVWGTGTTVTVSS VL: DIVMTQSHKFMSTSVGDRVSITCKASQDVGTAVAWYQQKPGQSPKLLIYWASTRHTGVPDRFTGSGSGTDFTLTISNVQSEDLADYFCQQYSSYPLTFGAGTKLELKR	0.05 OD	2.42 OD	1.26 OD	0.32 OD	0.49 OD	2.94 OD	2.53 OD	2.22 OD	–	–	–	–	–	–	–	–	–	–	–	–	–
S009-F8-15.19 (antibody, human IgG1, kappa, V domains shown, Human-murine chimeric antibody, human IgG1 heavy and kappa light constant regions) VH: EFQLQQSGPELVKPGASVKISCKASGYSFTDYNMNWVKQSNGKSLEWIGIINPYYGTTSNNQNFKGKATLTVDQSSSTAYMQLNSLTSDDSAVYYCARWLRRDAMDYWGQGTSVTVSS VL: DIVMTPSHKFMSTSVGDRVSIACKASQDVGSSVAWYQQKPGQSPKLLIYWTSTRHTGVPDRFTGSGSGTDFTLTISNVQSEDLADYFCQQYSSYPWTFGGGTKLEIKR	0.05 OD	2.23 OD	0.24 OD	0.05 OD	0.08 OD	2.64 OD	2.47 OD	1.11 OD	–	–	–	–	–	–	–	–	–	–	–	–	–
S009-F8-7.5 (antibody, human IgG1, kappa, V domains shown, Human-murine chimeric antibody, human IgG1 heavy and kappa light constant regions) VH: DVQLQESGPGLVKPSQSLSLTCSVTGYSITSGYYWNWIRQFPGNKLEWMAYIRYDGSNNYNPSLKNRISIIRDTSKNQFFLRLNSVTTEDTATYYCAKSYYGMDDWGQGISVTVSS VL: DIQMTQSPASLSASVGETVTITCRTSGDIHNYLAWYQQKQGKSPQLLVYKAKTLENGVPSRFTGSGSGTQFSLKIDSLQPEDFGTYYCQHFWTTPYTFGGGTKLEIKR	0.05 OD	2.55 OD	0.49 OD	0.06 OD	0.12 OD	3.22 OD	2.73 OD	1.88 OD	–	–	–	–	–	–	–	–	–	–	–	–	–
F7.44.20-VL-VH (scFv, not shown: small tags and cut ends, also called S009-F7.44.20 parental variable regions, VL-VH order) scFv: QIVLTQSPALMSASPGEKVTLTCSASSSVISSYLSWYQQKPGSSPKLLIYRTSNLASGVPARFSGSGSGTSYSLTISSMEAEDAASYFCHQWSSFPYTFGGGTKLEIKGGGGSGGGGSGGGGSEVQLQQSGPELVKPGASVKIPCKASGYTFTDYNMDWVKQSHGKSLEWIGDINPSTGGTIYNQKFNGKATLTEDKSASTVYMEFRSLTSDDTAVYYCARRRIGTGYFDVWGTGTTVTVSS	–	–	–	–	–	–	–	–	0.11 OD450	1.8 OD450	1.68 OD450	0.55 OD450	0.2 OD450	0.04 OD450	0.05 OD450	0.05 OD450	2.98 OD450	2.14 OD450	0.04 OD450	0.08 OD450	OD450 [21]: 0.05 OD450; OD450 [22]: 1.06 OD450
S009-F8-4.5 (antibody, human IgG1, kappa, V domains shown, Human-murine chimeric antibody, human IgG1 heavy and kappa light constant regions) VH: QVQLQQPGAELVKPGASVKLSCKASGYTFTIYWMHWVKQRPGQGLEWIGMIHPNSGNTNYNEKFKSKATLTVDKSSSTAYMQLSSLTSEDSAVYYCSLIHWYFDVWGTGTTVTVSS VL: QIVLTQSPAIMSASPGEKVTMTCSASSSVSYMYWYQQKPGSSPRLLIYDTSNLASGVPVRFSGSGSGTSYSLTISRMEAEDAATYYCQQWSSYPLTFGAGTKLELKR	0.06 OD	2.8 OD	0.18 OD	0.07 OD	0.1 OD	2.94 OD	2.79 OD	1.31 OD	–	–	–	–	–	–	–	–	–	–	–	–	–
S009-F8-13.8 (antibody, human IgG1, kappa, V domains shown, Human-murine chimeric antibody, human IgG1 heavy and kappa light constant regions) VH: EFQLQQSGPELVKPGASVKISCKASGYSFTDYNMNWVKQTNGKSLEWIGIINPNYGTSSYNQKFKGKATLTVDQSSSTAYMQLNSLTSEDSAVYYCARVGRDNSGFDYWGQGTTLTVSS VL: QIVLTQSPAIMSASPGEKVTMTCSASSSVSYMYWYQQKPGSSPRLLIYDTSNLASGVPVRFSGSGSGTSYSLTISRMEAEDAATYYCQQWSSYPPTFGSGTELEIKR	0.05 OD	2.05 OD	0.24 OD	0.05 OD	0.07 OD	2.69 OD	2.34 OD	1.18 OD	–	–	–	–	–	–	–	–	–	–	–	–	–
F7.44.20 (scFv, not shown: small tags and cut ends, also called S009-F7.44.20 (parental variable regions, in the humanized-antibody ELISA)) scFv: EVQLQQSGPELVKPGASVKIPCKASGYTFTDYNMDWVKQSHGKSLEWIGDINPSTGGTIYNQKFNGKATLTEDKSASTVYMEFRSLTSDDTAVYYCARRRIGTGYFDVWGTGTTVTVSSGGGGSGGGGSGGGGSQIVLTQSPALMSASPGEKVTLTCSASSSVISSYLSWYQQKPGSSPKLLIYRTSNLASGVPARFSGSGSGTSYSLTISSMEAEDAASYFCHQWSSFPYTFGGGTKLEIK	–	–	–	–	–	–	–	–	0.22 OD450	1.96 OD450	1.68 OD450	0.39 OD450	0.17 OD450	0.04 OD450	0.05 OD450	0.04 OD450	2.97 OD450	2.48 OD450	0.04 OD450	0.07 OD450	OD450 [21]: 0.04 OD450; OD450 [22]: 0.83 OD450
S009-F8-5.15 (antibody, human IgG1, kappa, V domains shown, Human-murine chimeric antibody, human IgG1 heavy and kappa light constant regions) VH: QVQLQQPGTELVKPGASVKLSCKASGYTFTSYWMHWVKQRPGQGLEWIGHSNPSNGGTNYNEKFKSKATLTVDKSSSTAYMQLSSLTSEDSAVYYCARWVRGSNYEYFDVWGTGTTVTVSS VL: DIVMTQSQKFMSTTVGDRVSIICKASQNVGSAVAWCQQKPGQSPKLLIYSASNRYTGVPDRFTGSGSGTDFTLTISNMQSEDLADYFCQQYSSYPLTFAGGTKLEIKR	0.05 OD	2.51 OD	0.34 OD	0.05 OD	0.08 OD	3.16 OD	2.75 OD	1.53 OD	–	–	–	–	–	–	–	–	–	–	–	–	–
S009-F8-8.22 (antibody, human IgG1, kappa, V domains shown, Human-murine chimeric antibody, human IgG1 heavy and kappa light constant regions) VH: EVQLQQSGPELVKPGASVKMSCKASGYTFTDYIIHWVKQSHGKSLEWIAYIFPNNGGTGYNQKFRGKATLTVNKSSSTAYMELRSLTSEDSAVYYCARWRLRQYFDVWGTGTTVTVSS VL: DIVMTQSQKFMSTIVGDRVSITCKASQNVGTAVAWYQQKPGQSPKLLIYSASNRYTGVPDRFTGSGSGTDFTLTISNMQSEDLADYFCQQYSSYPLTFGGGTKLEIKR	0.05 OD	2.75 OD	0.91 OD	0.1 OD	0.23 OD	3.15 OD	3.15 OD	1.97 OD	–	–	–	–	–	–	–	–	–	–	–	–	–
F7.44.20-H16 (scFv, not shown: small tags and cut ends, also called S009-F7.44.20 humanized antibody VH2a + VL4) scFv: EVQLVQSGAEVKKPGASVKVSCKASGYTFTDYNMDWVRQAPGQGLEWMGDINPSTGGTIYNQKFSGRVTMTEDKSASTVYMELSSLRSEDTAVYYCARRRIGTGYFDVWGQGTTVTVSSGGGGSGGGGSGGGGSEIVLTQSPATLSLSPGERATLSCSASSSVISSYLSWYQQKPGSSPRLLIYRTSNLASGIPARFSGSGSGTDYTLTISSLEPEDFAVYYCHQWSSFPYTFGGGTKVEIK	–	–	–	–	–	–	–	–	0.16 OD450	1.8 OD450	1.6 OD450	0.72 OD450	0.05 OD450	0.05 OD450	0.05 OD450	0.04 OD450	2.97 OD450	2.4 OD450	0.04 OD450	0.1 OD450	OD450 [21]: 0.06 OD450; OD450 [22]: 1.12 OD450

Source: US20250250357A1 (NANJING ZAIMING PHARMACEUTICAL, published 2025)
